Test [1] concerns the target T1, FcγRIIAH131 extracellular domain, His tag (human, UniProt P12318 34-217).
T1 construct: extracellular domain
T1 sequence (looked up): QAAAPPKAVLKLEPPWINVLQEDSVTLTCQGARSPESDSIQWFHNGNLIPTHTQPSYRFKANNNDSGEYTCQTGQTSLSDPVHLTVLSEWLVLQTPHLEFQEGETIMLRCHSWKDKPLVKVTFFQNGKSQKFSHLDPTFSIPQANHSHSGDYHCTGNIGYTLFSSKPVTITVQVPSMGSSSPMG
The experiment in a line: ELISA, FcγR-His coated, preformed immune complex; normalized to hu333-4A2-IgG1wt. How it is done:
(§1) The extracellular domains of FcγRs were fused to C-terminal His tags as described in previous sections. Recombinant proteins were expressed in 293-F cells by transient transfection and purified using Ni-Sepharose column followed by gel filtration column as described. 2-5 μg/mL of FcγRs were coated on Nunc MaxiSorp ELISA plates (Cat. No. 442404, Nunc, Thermo Fisher) except FcγRIIB and FcγRIIIB, Ni-chelate plates were used (Cat. No. 15242, Pierce, Thermo Fisher). After washing and blocking of the wells, a preformed immune-complex was added to each well and incubated at room temperature for 1-2 hours. […] After washing the plate four times, binding signals were detected by chemiluminescence using Immobilon Chemiluminescence Substrate A/B (Cat. No. WBKLS0500, Millipore).
A general note: An ELISA detects its analyte on a solid surface through an enzyme-linked reagent.

For test [2], the target named is T2, FcγRIIIAF158 extracellular domain, His tag (human, UniProt P08637 17-208).
T2 construct: extracellular domain
T2 sequence (P08637 17-208): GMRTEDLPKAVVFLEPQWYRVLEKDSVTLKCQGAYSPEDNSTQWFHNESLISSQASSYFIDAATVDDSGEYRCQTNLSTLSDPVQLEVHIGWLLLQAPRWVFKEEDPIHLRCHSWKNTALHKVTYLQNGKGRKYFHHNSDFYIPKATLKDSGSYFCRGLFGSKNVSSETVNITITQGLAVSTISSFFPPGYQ
The description is as above. Here is the method: as §1

In test [3] the target is T3, FcγRIIAR131 extracellular domain, His tag (human, UniProt P12318 34-217).
T3 construct: extracellular domain
T3 sequence (looked up): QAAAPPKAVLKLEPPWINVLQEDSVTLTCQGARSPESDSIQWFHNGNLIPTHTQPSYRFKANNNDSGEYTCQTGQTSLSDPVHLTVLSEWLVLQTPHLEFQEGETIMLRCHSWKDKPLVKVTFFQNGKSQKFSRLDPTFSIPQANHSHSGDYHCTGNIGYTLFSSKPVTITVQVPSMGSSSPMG
The description is as above. How it is done: as §1

The target of test [4] is T4, FcγRI extracellular domain, His tag (human, UniProt P12314 16-292).
T4 construct: extracellular domain
T4 sequence (P12314 16-292): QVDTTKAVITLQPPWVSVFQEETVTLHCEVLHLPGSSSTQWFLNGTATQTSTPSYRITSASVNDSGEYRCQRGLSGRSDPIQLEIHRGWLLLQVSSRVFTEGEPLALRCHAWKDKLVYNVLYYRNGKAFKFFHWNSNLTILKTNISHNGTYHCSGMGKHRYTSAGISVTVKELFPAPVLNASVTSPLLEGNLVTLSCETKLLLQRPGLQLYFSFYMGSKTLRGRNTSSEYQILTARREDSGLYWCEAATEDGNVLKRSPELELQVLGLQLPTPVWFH
Described as above. How it is done: as §1

Test [5] deals with T5, FcγRIIIAV158 extracellular domain, His tag (human, UniProt P08637 17-208).
T5 construct: extracellular domain; also called FcγRIIIAV58
T5 sequence (P08637 17-208 F176V limits assumed): as the sequence (P08637 17-208) above, with F160V counted along it
Described as above. Here is the method:
as §1

Test [6] deals with T5, FcγRIIIAV158 extracellular domain, His …. Briefly: ELISA, FcγR-His coated, preformed immune complex of the mAb. How it is done: as §1
For test [7], the target named is T6, human FcγRIIIAF158 expressed on HEK293 cells (human, UniProt P08637 17-254).
T6 construct: whole, on cells; Co-expressed with FcRγ subunit
T6 sequence (P08637 17-254): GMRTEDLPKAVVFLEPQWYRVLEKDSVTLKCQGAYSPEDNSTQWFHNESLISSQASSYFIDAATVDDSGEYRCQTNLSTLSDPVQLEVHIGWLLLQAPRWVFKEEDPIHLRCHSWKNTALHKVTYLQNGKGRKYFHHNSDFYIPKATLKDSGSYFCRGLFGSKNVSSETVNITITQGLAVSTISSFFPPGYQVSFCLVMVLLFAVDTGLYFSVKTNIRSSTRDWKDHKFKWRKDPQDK
The experiment in a line: FACS, monomeric mAb on FcγR-expressing HEK293 cells, goat anti-human IgG F(ab')2-Alexa Fluor 488 detection. Here is the method:
(§2) Bindings of humanized anti-PD-L1 in various IgG1 formats (wt, IgG1mc, IgG1mf, SEQ. NO. 27-29) to FcγRs were also determined by flow cytometry. In brief, a series of stable HEK293 transfectants expressing human FcγRs were established. These stable cell lines expressed FcγRI, FcγRIIAH131, FcγRIIAR131, FcγRIIB, FcγRIIIAF158 or FcγRIIIAV158, respectively. Multi-subunit FcγRs (i.e., FcγRI and FcγRIIIA) were co-expressed with FcRγ subunit.

Test [8] addresses T7, human FcγRIIAH131 expressed on HEK293 cells (human, UniProt P12318 34-317).
T7 construct: whole, on cells
T7 sequence (looked up): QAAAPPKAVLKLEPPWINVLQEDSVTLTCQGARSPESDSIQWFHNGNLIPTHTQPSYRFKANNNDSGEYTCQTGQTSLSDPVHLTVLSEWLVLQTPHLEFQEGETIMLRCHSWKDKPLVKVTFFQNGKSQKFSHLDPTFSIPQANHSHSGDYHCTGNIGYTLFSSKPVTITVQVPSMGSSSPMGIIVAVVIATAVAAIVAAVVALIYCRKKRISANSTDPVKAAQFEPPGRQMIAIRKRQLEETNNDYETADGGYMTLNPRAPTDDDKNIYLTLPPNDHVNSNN
Described as above. How it is done: as §2

Test [9] has as its target T8, human FcγRI expressed on HEK293 cells (human, UniProt P12314 16-374).
T8 construct: whole, on cells; Co-expressed with FcRγ subunit
The test is described as above. How it is done:
as §2

For test [10], the target named is T9, human FcγRIIAR131 expressed on HEK293 cells (human, UniProt P12318 34-317).
T9 construct: whole, on cells
T9 sequence (looked up): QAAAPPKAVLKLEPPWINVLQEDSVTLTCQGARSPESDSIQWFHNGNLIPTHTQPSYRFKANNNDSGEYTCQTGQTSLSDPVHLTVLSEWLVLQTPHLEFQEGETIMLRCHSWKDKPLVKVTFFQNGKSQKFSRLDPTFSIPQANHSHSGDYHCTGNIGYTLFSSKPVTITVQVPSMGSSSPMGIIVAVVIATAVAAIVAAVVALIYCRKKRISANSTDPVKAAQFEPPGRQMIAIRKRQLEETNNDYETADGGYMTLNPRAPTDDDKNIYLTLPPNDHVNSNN
Described as above. Here is the method:
as §2

Test [11] concerns the target T10, human FcγRIIB expressed on HEK293 cells (human, UniProt P31994 43-310).
T10 construct: whole, on cells
T10 sequence (looked up): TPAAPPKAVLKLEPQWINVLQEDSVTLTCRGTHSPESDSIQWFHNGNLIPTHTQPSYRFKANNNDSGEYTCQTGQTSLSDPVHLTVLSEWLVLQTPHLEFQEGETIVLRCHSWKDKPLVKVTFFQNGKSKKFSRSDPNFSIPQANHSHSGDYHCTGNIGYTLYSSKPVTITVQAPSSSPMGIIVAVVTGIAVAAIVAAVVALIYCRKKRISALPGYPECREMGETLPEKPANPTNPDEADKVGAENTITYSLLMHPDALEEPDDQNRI
The test is described as above. How it is done: as §2

T8 sequence (P12314 16-374): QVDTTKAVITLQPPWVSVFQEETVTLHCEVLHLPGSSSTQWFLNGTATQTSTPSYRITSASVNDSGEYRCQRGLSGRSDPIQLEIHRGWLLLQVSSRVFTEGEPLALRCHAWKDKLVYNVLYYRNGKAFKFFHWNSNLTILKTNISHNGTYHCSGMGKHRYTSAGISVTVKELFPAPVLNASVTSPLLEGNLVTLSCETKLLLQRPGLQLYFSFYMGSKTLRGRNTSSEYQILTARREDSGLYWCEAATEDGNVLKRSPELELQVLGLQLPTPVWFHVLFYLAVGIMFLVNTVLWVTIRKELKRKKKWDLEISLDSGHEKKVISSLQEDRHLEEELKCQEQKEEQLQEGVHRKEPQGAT

B1: hu333-4A2-IgG1wt (antibody)
heavy: not shown
VL: DIQMTQSPSSLSASVGDRVTITCKASQDVGIVVAWYQQKPGKAPKLLIYWASIRHTGVPSRFSGSGSGTEFTLTISSLQPDDFATYYCQQYSNYPLYTFGQGTKVEIK
notes: light chain constant region (kappa) not tied to an entry for this form
With B1, the Relative binding in [1], in [2], in test [3], in test [4] and in test [5] was 100% each time. The Chemiluminescence in [6] was found to be 57800.

B2: hu333-4B2-IgG1mc (antibody)
heavy: EVQLVESGGGLVQPGGSLRLSCAVSGFSLTSYGVHWVRQAPGKGLEWVAVIWAGGSTNYADSVKGRFTISKDTSKNTVYLQMNSLRAEDTAVYYCAKPYGTSAMDYWGQGTLVTVSSASTKGPSVFPLAPSSKSTSGGTAALGCLVKDYFPEPVTVSWNSGALTSGVHTFPAVLQSSGLYSLSSVVTVPSSSLGTQTYICNVNHKPSNTKVDKKVEPKSCDKTHTCPPCPAPPAAAPSVFLFPPKPKDTLMISRTPEVTCVVVDVSHEDPEVKFNWYVDGVEVHNAKTKPREEQYNSTYRVVSVLTVLHQDWLNGKEYKCKVSNKALAAPIEKTISKAKGQPREPQVYTLPPSRDELTKNQVSLTCLVKGFYPSDIAVEWESNGQPENNYKTTPPVLDSDGSFFLYSKLTVDKSRWQQGNVFSCSVMHEALHNHYTQKSLSLSPGK
light: DIQMTQSPSSLSASVGDRVTITCKASQDVGIVVAWYQQKPGKAPKLLIYWASIRHTGVPSRFSGSGSGTEFTLTISSLQPDDFATYYCQQYSNYPLYTFGQGTKVEIKRTVAAPSVFIFPPSDEQLKSGTASVVCLLNNFYPREAKVQWKVDNALQSGNSQESVTEQDSKDSTYSLSSTLTLSKADYEKHKVYACEVTHQGLSSPVTKSFNRGEC
Turning to B2, the binding result in test [7], in test [8], in [9], in test [10] and in test [11] was “no binding” throughout.

B3: hu333-4A2-IgG1mc (antibody)
heavy: EVQLVESGGGLVQPGGSLRLSCAVSGFSLTSYGVHWVRQAPGKGLEWVAVIWAGGSTNYVDSVKGRFTISKDNAKNTVYLQMNSLRAEDTAVYYCAKPYGTSAMDYWGQGTLVTVSSASTKGPSVFPLAPSSKSTSGGTAALGCLVKDYFPEPVTVSWNSGALTSGVHTFPAVLQSSGLYSLSSVVTVPSSSLGTQTYICNVNHKPSNTKVDKKVEPKSCDKTHTCPPCPAPPAAAPSVFLFPPKPKDTLMISRTPEVTCVVVDVSHEDPEVKFNWYVDGVEVHNAKTKPREEQYNSTYRVVSVLTVLHQDWLNGKEYKCKVSNKALAAPIEKTISKAKGQPREPQVYTLPPSRDELTKNQVSLTCLVKGFYPSDIAVEWESNGQPENNYKTTPPVLDSDGSFFLYSKLTVDKSRWQQGNVFSCSVMHEALHNHYTQKSLSLSPGK
light: DIQMTQSPSSLSASVGDRVTITCKASQDVGIVVAWYQQKPGKAPKLLIYWASIRHTGVPSRFSGSGSGTEFTLTISSLQPDDFATYYCQQYSNYPLYTFGQGTKVEIKRTVAAPSVFIFPPSDEQLKSGTASVVCLLNNFYPREAKVQWKVDNALQSGNSQESVTEQDSKDSTYSLSSTLTLSKADYEKHKVYACEVTHQGLSSPVTKSFNRGEC
On to B3, for which the binding result in test [7], in test [8], in test [9], in [10] and in test [11] was “no binding” each time.

B4: hu333-4B2-IgG1mf (antibody)
heavy: EVQLVESGGGLVQPGGSLRLSCAVSGFSLTSYGVHWVRQAPGKGLEWVAVIWAGGSTNYADSVKGRFTISKDTSKNTVYLQMNSLRAEDTAVYYCAKPYGTSAMDYWGQGTLVTVSSASTKGPSVFPLAPSSKSTSGGTAALGCLVKDYFPEPVTVSWNSGALTSGVHTFPAVLQSSGLYSLSSVVTVPSSSLGTQTYICNVNHKPSNTKVDKKVEPKSCDKTHTCPPCPAPPAAGPSVFLFPPKPKDTLMISRTPEVTCVVVDVSHEDPEVKFNWYVDGVEVHNAKTKPREEQYNSTYRVVSVLTVLHQDWLNGKEYKCKVSNKALAAPIEKTISKAKGQPREPQVYTLPPSRDELTKNQVSLTCLVKGFYPSDIAVEWESNGQPENNYKTTPPVLDSDGSFFLYSKLTVDKSRWQQGNVFSCSVMHEALHNHYTQKSLSLSPGK
light: DIQMTQSPSSLSASVGDRVTITCKASQDVGIVVAWYQQKPGKAPKLLIYWASIRHTGVPSRFSGSGSGTEFTLTISSLQPDDFATYYCQQYSNYPLYTFGQGTKVEIKRTVAAPSVFIFPPSDEQLKSGTASVVCLLNNFYPREAKVQWKVDNALQSGNSQESVTEQDSKDSTYSLSSTLTLSKADYEKHKVYACEVTHQGLSSPVTKSFNRGEC
Regarding B4, the binding result in test [7], in [8], in [9], in [10] and in [11] was “no binding” throughout.

Values taken from patent US20180215825A1 (BEIGENE, published 2018).
